Experimental data reported in patent US20240117074A1 (published 2024).
Values belong to the binder of their own block, whether it stands above or below them.

Columns and labels:
[1] = target: T1, human CEACAM5, recombinant soluble (hCEACAM-5, R&D Systems #4128-CM-050) (human, UniProt P06731 35-685); assay: dual target ELISA: CEACAM5 coated, biotinylated hCD40-muIg detection
T1 construct: Bought protein; also called Human CEACAM5-His; monomeric human CEACAM5-His
T1 sequence (looked up): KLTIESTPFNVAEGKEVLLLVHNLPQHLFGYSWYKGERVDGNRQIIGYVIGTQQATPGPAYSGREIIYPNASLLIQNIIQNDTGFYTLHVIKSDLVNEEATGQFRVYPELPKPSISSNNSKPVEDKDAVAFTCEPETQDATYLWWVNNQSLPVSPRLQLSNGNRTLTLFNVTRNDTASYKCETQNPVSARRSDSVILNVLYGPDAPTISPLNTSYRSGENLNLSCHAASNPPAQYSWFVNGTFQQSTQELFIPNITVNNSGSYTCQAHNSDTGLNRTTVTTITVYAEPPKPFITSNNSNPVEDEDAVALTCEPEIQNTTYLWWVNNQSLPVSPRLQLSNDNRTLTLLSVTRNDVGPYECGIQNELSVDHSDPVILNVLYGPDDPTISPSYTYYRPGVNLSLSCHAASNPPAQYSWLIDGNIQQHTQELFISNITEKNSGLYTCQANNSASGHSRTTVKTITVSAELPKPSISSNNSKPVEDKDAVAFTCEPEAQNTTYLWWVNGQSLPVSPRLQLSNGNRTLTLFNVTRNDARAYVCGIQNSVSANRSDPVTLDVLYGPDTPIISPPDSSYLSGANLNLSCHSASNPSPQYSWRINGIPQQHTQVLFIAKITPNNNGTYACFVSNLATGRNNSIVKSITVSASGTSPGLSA
Method: ELISA plates were coated with human EpCAM, bsAb was added followed by detection using goat anti human-kappa light chain-HRP.
96-well plates were coated with 0.5 μg/mL antigen, hCEACAM-1 (2244-CM-050, R&D Systems), hCEACAM-5 (4128-CM-050, R&D Systems), hCEACAM-6 (3934-CM-050, R&D Systems) or CEACAM-8 (9639-CM-050, R&D Systems) in PBS over night at 4° C. After washing in PBS/0.05% Tween 20 (PBST), the plates were blocked with PBST, 2% BSA for at least 30 minutes at room temperature before a second round of washing. RUBY bsAbs, diluted in PBST, 0.5% BSA, were then added and allowed to bind for at least 1 hour at room temperature. […] Finally, a final round of washing was performed and bound complexes detected using SuperSignal Pico Luminescent as substrate and luminescence signals were measured using Fluostar Optima.

[2] = target: T1, human CEACAM5, recombinant soluble …; assay: Octet BLI, captured bsAb, monomeric CEACAM5 in solution
[3] = target: T1, human CEACAM5, recombinant soluble …; assay: Octet BLI, captured bsAb, soluble antigen
[4] = target: CD40 expressed on cells (CD40 reporter cells, HEK Blue CD40L cells, primary B cells, tumor APCs) (human, UniProt P25942 21-277); assay: cell-based or functional assay
[5] = target: T2, monomeric Cynomolgus CEACAM5-His (Sino Biological #90891-C08H) (cynomolgus); assay: Octet BLI, captured bsAb, soluble antigen
T2 chain: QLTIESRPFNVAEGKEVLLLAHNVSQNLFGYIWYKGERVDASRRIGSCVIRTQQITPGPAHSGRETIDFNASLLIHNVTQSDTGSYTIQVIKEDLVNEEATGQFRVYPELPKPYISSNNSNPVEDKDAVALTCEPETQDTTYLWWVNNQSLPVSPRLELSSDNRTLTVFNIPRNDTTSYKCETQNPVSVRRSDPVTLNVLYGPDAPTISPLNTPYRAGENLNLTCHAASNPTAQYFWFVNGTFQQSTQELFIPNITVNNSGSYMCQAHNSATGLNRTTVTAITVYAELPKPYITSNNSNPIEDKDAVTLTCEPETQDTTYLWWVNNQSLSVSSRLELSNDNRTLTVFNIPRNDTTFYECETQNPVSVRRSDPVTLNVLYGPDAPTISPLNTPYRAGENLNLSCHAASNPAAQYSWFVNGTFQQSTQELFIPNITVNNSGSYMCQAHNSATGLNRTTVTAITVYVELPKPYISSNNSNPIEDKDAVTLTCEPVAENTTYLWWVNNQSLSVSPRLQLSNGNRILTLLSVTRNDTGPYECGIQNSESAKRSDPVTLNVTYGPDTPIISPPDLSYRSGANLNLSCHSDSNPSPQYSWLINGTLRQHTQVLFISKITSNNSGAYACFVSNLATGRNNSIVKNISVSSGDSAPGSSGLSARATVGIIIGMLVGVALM

[6] = target: T3, biotinylated human CD40-mouse Fc (Ancell #504-030) (human, UniProt P25942 21-193, biotinylated); assay: Octet BLI, captured CD40mFc-biotin, bsAb in solution
T3 construct: Bought fusion protein; also called hCD40-muIg; CD40mFc-biotin; not shown: mouse Ig Fc of the bought fusion protein
T3 sequence (P25942 21-193): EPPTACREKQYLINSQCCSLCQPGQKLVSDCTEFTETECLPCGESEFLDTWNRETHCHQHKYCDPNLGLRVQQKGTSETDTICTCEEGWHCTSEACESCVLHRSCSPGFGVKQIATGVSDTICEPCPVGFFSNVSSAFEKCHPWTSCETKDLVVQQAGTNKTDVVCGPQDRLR

Chain of CD40 expressed on cells (CD40 reporter cells, HEK Blue CD40L cells, primary B cells, tumor APCs) (P25942 21-277): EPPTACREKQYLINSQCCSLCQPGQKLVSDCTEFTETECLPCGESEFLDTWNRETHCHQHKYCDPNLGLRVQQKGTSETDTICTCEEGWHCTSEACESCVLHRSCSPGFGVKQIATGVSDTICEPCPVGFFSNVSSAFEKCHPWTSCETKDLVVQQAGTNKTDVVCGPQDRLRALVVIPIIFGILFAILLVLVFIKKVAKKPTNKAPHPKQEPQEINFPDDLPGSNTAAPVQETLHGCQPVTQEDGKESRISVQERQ

B4: AC_05293 (bispecific antibody)
chain 1: EVQLLESGGGLVQPGGSLRLSCAASGFTFSSYAMSWVRQAPGKGLEWVSGIGSYGGGTYYADSVKGRFTISRDNSKNTLYLQMNSLRAEDTAVYYCARYVNFGMDYWGQGTLVTVSS
chain 2: DIQMTQSPSSLSASVGDRVTITCRASQSISSYLNWYQQKPGKAPKLLIYAASSLQSGVPSRFSGSGSGTDFTLTISSLQPEDFATYYCQQYGRNPPTFGQGTKLEIK
chain 3: EVQLLEQSGAELVRPGTSVKISCKASGYAFTNYWLGWVKQRPGHGLEWIGDIFPGSGNIHYNEKFKGKATLTADKSSSTAYMQLSSLTFEDSAVYFCARLRNWDEPMDYWGQGTTVTVSS
chain 4: ELVMTQSPSSLTVTAGEKVTMSCKSSQSLLNSGNQKNYLTWYQQKPGQPPKLLIYWASTRESGVPDRFTGSGSGTDFTLTISSVQAEDLAVYYCQNDYSYPLTFGAGTKLEIK
Kd [6]: 76 nM
koff [6]: 0.00062 s⁻¹
kon [6]: 8300 M⁻¹ s⁻¹

B5: AC_05300 (bispecific antibody)
chain 1: EVQLLEQSGAELVRPGTSVKISCKASGYAFTNYWLGWVKQRPGHGLEWIGDIFPGSGNIHYNEKFKGKATLTADKSSSTAYMQLSSLTFEDSAVYFCARLRNWDEPMDYWGQGTTVTVSS
chain 2: ELVMTQSPSSLTVTAGEKVTMSCKSSQSLLNSGNQKNYLTWYQQKPGQPPKLLIYWASTRESGVPDRFTGSGSGTDFTLTISSVQAEDLAVYYCQNDYSYPLTFGAGTKLEIK
chain 3: EVQLLESGGGLVQPGGSLRLSCAASGFTFSSYAMSWVRQAPGKGLEWVSGIGSYGGGTYYADSVKGRFTISRDNSKNTLYLQMNSLRAEDTAVYYCARYVNFGMDYWGQGTLVTVSS
chain 4: DIQMTQSPSSLSASVGDRVTITCRASQSISSYLNWYQQKPGKAPKLLIYAASSLQSGVPSRFSGSGSGTDFTLTISSLQPEDFATYYCQQYGRNPPTFGQGTKLEIK
Kd [6]: 8.5 nM
koff [6]: 0.0046 s⁻¹
kon [6]: 540000 M⁻¹ s⁻¹

B6: AC_05331 (bispecific antibody)
chain 1: not shown
chain 2: DIQMTQSPSSLSASVGDRVTITCRASQSISSYLNWYQQKPGKAPKLLIYAASSLQSGVPSRFSGSGSGTDFTLTISSLQPEDFATYYCQQTYGYLHTFGQGTKLEIK
chain 3: EVQLLESGGGLVQPGGSLRLSCAASGFTFSTYGMHWVRQAPGKGLEWLSYISGGSSYIFYADSVRGRFTISRDNSENALYLQMNSLRAEDTAVYYCARILRGGSGMDLWGQGTLVTVSS
chain 4: QSVLTQPPSASGTPGQRVTISCTGSSSNIGAGYNVYWYQQLPGTAPKLLIYGNINRPSGVPDRFSGSKSGTSASLAISGLRSEDEADYYCAAWDKSISGLVFGGGTKLTVLG
Kd [6]: 0.23 nM
koff [6]: 8.1e-06 s⁻¹
kon [6]: 36000 M⁻¹ s⁻¹

B7: AC_05330 (bispecific antibody)
chain 1: EVQLLESGGGLVQPGGSLRLSCAASGFTFSTYGMHWVRQAPGKGLEWLSYISGGSSYIFYADSVRGRFTISRDNSENALYLQMNSLRAEDTAVYYCARILRGGSGMDLWGQGTLVTVSS
chain 2: QSVLTQPPSASGTPGQRVTISCTGSSSNIGAGYNVYWYQQLPGTAPKLLIYGNINRPSGVPDRFSGSKSGTSASLAISGLRSEDEADYYCAAWDKSISGLVFGGGTKLTVLG
chain 3: not shown
chain 4: DIQMTQSPSSLSASVGDRVTITCRASQSISSYLNWYQQKPGKAPKLLIYAASSLQSGVPSRFSGSGSGTDFTLTISSLQPEDFATYYCQQTYGYLHTFGQGTKLEIK
Kd [6]: 0.45 nM
koff [6]: 1.6e-05 s⁻¹
kon [6]: 35000 M⁻¹ s⁻¹

Other lines, results leading:

binding result [1]: binds
B1: Multi39 (bispecific antibody)
heavy 1: not shown
light: not shown
heavy 2: EVQLLESGGGLVQPGGSLRLSCAASGFTFYDHAMSWVREAPGKGLEWVSAISGSYGSTGYADSVKGRFTISRDNSKNTLYLQMNSLRAEDTAVYYCARWGGWAGDIDYWGQGTLVTVSSASTKGPSVFPLAPSSKSTSGGTAALGCLVKDYFPEPVTVSWNSGALTSGVHTFPAVLQSSGLYSLTSVVEVPSSSLGTQTYICNVNHKPSNTKVDKKVEPKSC
notes: copies: 2 + 2 + 2

Kd [2]: 1.8 nM
koff [2]: 0.00042 s⁻¹
kon [2]: 240000 M⁻¹ s⁻¹
Kd [3]: < 0.001 nM
koff [3]: < 1e-07 s⁻¹
kon [3]: 520000 M⁻¹ s⁻¹
EC50 of HEK Blue CD40L reporter activation (SEAP), CHO-CEACAM5 crosslinking, 0 Raji sink cells/well [4]: 0.03 nM
EC50 of HEK Blue CD40L reporter activation (SEAP), CHO-CEACAM5 crosslinking, 10 000 Raji sink cells/well [4]: 0.05 nM
EC50 of HEK Blue CD40L reporter activation (SEAP), CHO-CEACAM5 crosslinking, 30 000 Raji sink cells/well [4]: 0.08 nM
EC50 of HEK Blue CD40L reporter activation (SEAP), CHO-CEACAM5 crosslinking, 90 000 Raji sink cells/well [4]: 0.23 nM
B2: AC_05339 (bispecific antibody)
chain 1: not shown
chain 2: DIQMTQSPSSLSASVGDRVTITCRASQSISSYLNWYQEKPGKAPKLLIYAASSLQSGVPSRFSGSGSGTDFTLTISSLQPEDFATYYCQQAGNPHTFGQGTKLEIKRTVAAPSVFIFPPSDEQLKSGTASVVCYLNNFYPREAKVQWKVDNALQSGNSQESVTEQDSKDSTYSLWSTLTLSKADYEKHKVYACEVTHQGLSSPVTKSFNRGEC
chain 3: EVQLLESGGGLVQPGGSLRLSCAASGFTFSTYGMHWVREAPGKGLEWLSYISGGSSYIFYADSVKGRFTISRDNSKNTLYLQMNSLRAEDTAVYYCARILRGGSGMDLWGQGTLVTVSSASTKGPSVFPLAPSSKSTSGGTAALGCLVKDYFPEPVTVSWNSGALTSGVHTFPAVLQSSGLYSLTSVVEVPSSSLGTQTYICNVNHKPSNTKVDKKVEPKSC

Kd [3]: 1 nM
koff [3]: 0.00053 s⁻¹
kon [3]: 510000 M⁻¹ s⁻¹
Kd [5]: 20 nM
koff [5]: 0.0038 s⁻¹
kon [5]: 190000 M⁻¹ s⁻¹
B3: AC_05355 (bispecific antibody)
chain 1: not shown
chain 2: DIQMTQSPSSLSASVGDRVTITCRASENIFSYLAWYQEKPGKAPKLLIYNTRTLQSGVPSRFSGSGSGTDFTLTISSLQPEDFATYYCQHHYGTPFTFGQGTKLEIKRTVAAPSVFIFPPSDEQLKSGTASVVCYLNNFYPREAKVQWKVDNALQSGNSQESVTEQDSKDSTYSLWSTLTLSKADYEKHKVYACEVTHQGLSSPVTKSFNRGEC
chain 3: EVQLLESGGGLVQPGGSLRLSCAASGFTFSTYGMHWVREAPGKGLEWLSYISGGSSYIFYADSVKGRFTISRDNSKNTLYLQMNSLRAEDTAVYYCARILRGGSGMDLWGQGTLVTVSSASTKGPSVFPLAPSSKSTSGGTAALGCLVKDYFPEPVTVSWNSGALTSGVHTFPAVLQSSGLYSLTSVVEVPSSSLGTQTYICNVNHKPSNTKVDKKVEPKSC
